Results on 4 molecules are retold here after article doi:10.1101/2025.07.03.659157, “Transient Poly(ADP-Ribose) Triggers FUS Condensation Hysteresis via a Prion-Like Mechanism” (bioRxiv, 2025).

One data set concerns FUS RGG3-PY fragment. The data set can be described thus: fluorescence anisotropy. As to conditions: poly(ADP-ribose); length not given in material; EMSA and anisotropy: 50 mM Tris-HCl pH 7.5, 100 mM KCl, 10 mM beta-mercaptoethanol, 0.1 mg/mL BSA, 2 mM MgCl2, 23 C, 30 min; single-molecule: 20 mM Tris-HCl pH …. Background: In fluorescence polarisation assays a small probe gives low polarisation when free and higher when bound to something large.

Data set [1] relates to FUS with all 15 RGG3-PY arginines to alanine. The data set can be described thus: fluorescence anisotropy or EMSA (method not given). As to conditions: poly(ADP-ribose); length not given in material; EMSA and anisotropy: 50 mM Tris-HCl pH 7.5, 100 mM KCl, 10 mM beta-mercaptoethanol, 0.1 mg/mL BSA, 2 mM MgCl2, 23 C, 30 min; single-molecule: 20 mM Tris-HCl pH ….
The test system of another data set is [RGYGG]5 peptide. Put plainly: EMSA. Conditions: poly(ADP-ribose), 16 ADP-ribose units; no base sequence; EMSA and anisotropy: 50 mM Tris-HCl pH 7.5, 100 mM KCl, 10 mM beta-mercaptoethanol, 0.1 mg/mL BSA, 2 mM MgCl2, 23 C, 30 min; single-molecule: 20 mM Tris-HCl pH ….
Another data set concerns [KGKGG]5 peptide. Put plainly: EMSA. Conditions: poly(ADP-ribose), 16 ADP-ribose units; no base sequence; EMSA and anisotropy: 50 mM Tris-HCl pH 7.5, 100 mM KCl, 10 mM beta-mercaptoethanol, 0.1 mg/mL BSA, 2 mM MgCl2, 23 C, 30 min; single-molecule: 20 mM Tris-HCl pH …. A general note: A gel shift assay detects complexes by their altered migration in electrophoresis.
A further data set relates to [KGYGG]5 peptide. The data set can be described thus: EMSA. As to conditions: poly(ADP-ribose), 16 ADP-ribose units; no base sequence; EMSA and anisotropy: 50 mM Tris-HCl pH 7.5, 100 mM KCl, 10 mM beta-mercaptoethanol, 0.1 mg/mL BSA, 2 mM MgCl2, 23 C, 30 min; single-molecule: 20 mM Tris-HCl pH ….
In another data set the test system is [RGRGG]5 peptide. Put plainly: EMSA. Conditions: poly(ADP-ribose), 16 ADP-ribose units; no base sequence; EMSA and anisotropy: 50 mM Tris-HCl pH 7.5, 100 mM KCl, 10 mM beta-mercaptoethanol, 0.1 mg/mL BSA, 2 mM MgCl2, 23 C, 30 min; single-molecule: 20 mM Tris-HCl pH ….
The target of data set [2] is T1, His-MBP-tagged PrLD (prion-like domain) of FUS (Fused in Sarcoma).
T1 chain: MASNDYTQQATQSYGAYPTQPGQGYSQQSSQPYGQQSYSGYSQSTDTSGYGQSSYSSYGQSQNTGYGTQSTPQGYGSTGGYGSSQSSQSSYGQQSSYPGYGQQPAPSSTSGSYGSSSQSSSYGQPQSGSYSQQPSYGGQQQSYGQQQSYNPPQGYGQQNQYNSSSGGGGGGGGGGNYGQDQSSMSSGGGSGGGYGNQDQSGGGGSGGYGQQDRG
The data set can be described thus: BLI. (Biolayer interferometry detects binding as a change in optical thickness at a sensor tip.)

Data set [3] deals with T2, His-MBP-tagged PrLD (prion-like domain) of FUS (Fused in Sarcoma).
T2 chain: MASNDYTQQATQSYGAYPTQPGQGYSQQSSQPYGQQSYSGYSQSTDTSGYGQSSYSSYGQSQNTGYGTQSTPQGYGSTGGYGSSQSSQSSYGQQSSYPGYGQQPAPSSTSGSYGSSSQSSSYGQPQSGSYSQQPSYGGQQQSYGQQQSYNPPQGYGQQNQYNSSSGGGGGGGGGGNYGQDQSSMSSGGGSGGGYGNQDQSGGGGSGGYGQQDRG
The data set can be described thus: BLI; His-MBP-tagged PrLD (400 nM) immobilised on HIS1K (anti-His) biosensors; analyte in PBSA (PBS + 0.1% BSA), MBP-tagged CTRR at 0.4, 1, 2, 5 and 12 uM; association 600 s, dissociation 600 s; Octet RED96; association phase fitted to an exponential kinetic binding model. As to conditions: both partners purified.

The molecule AF488-PAR (anisotropy) yielded a binding signal (fold weaker than full-length FUS) with FUS RGG3-PY fragment of 3. Also, the binding signal (fold weaker than wild-type FUS) in data set [1] is 2.7.

As usually defined, the Kd is a measure of binding affinity in units of concentration. As for Cy3-PAR 16-mer, the dissociation constant Kd in data set [RGYGG]5 peptide was determined as 10 µM; in data set [KGKGG]5 peptide it was 24 µM; in data set [KGYGG]5 peptide it was 29 µM; in data set [RGRGG]5 peptide it was 0.8 µM.

B1: MBP-tagged CTRR (C-terminal RGG-rich region, RGG2-ZnF-RGG3-PY) of FUS (domain or fragment)
chain: RADFNRGGGNGRGGRGRGGPMGRGGYGGGGSGGGGRGGFPSGGGGGGGQQRAGDWKCPNPTCENMNFSWRNECNQCKAPKPDGPGGGPGGSHMGGNYGDDRRGGRGGYDRGGYRGRGGDRGGFRGGRGGGDRGGFGPGKMDSRGEHRQDRRERPY
modifications: MBP tag omitted. Limits are not printed: start taken just after the RRM (285-371), running to the C-terminus (RGG2-ZnF-RGG3-PY). Zn2+ in the RanBP2-type zinc finger. His-MBP tag omitted. Limits are not printed: 1-214 is the conventional FUS PrLD/low-complexity domain, and it includes Y177, which the paper places in the PrLD.
In general, koff refers to a measure of how fast the partners let go of each other. Higher therefore signals a short-lived complex. As for B1, the off-rate (koff) in data set [2] turned out to be 0.00052 s⁻¹.

B2: MBP-tagged CTRR (C-terminal RGG-rich region, RGG2-ZnF-RGG3-PY) of FUS (domain or fragment)
chain: RADFNRGGGNGRGGRGRGGPMGRGGYGGGGSGGGGRGGFPSGGGGGGGQQRAGDWKCPNPTCENMNFSWRNECNQCKAPKPDGPGGGPGGSHMGGNYGDDRRGGRGGYDRGGYRGRGGDRGGFRGGRGGGDRGGFGPGKMDSRGEHRQDRRERPY
modifications: MBP tag omitted. Limits are not printed: start taken just after the RRM (285-371), running to the C-terminus (RGG2-ZnF-RGG3-PY). Zn2+ in the RanBP2-type zinc finger. / His-MBP tag omitted. Limits are
Turning to B2, the dissociation constant (Kd) in data set [3] was found to be 1.37 µM.
